Data taken from patent US7407939.
Where no end group is shown, it is not given here. [ ]: non-standard residue; d: D form. The star is where a group is joined. X1 = 5‑aminoethylsulfonamide isoquinoline, O=S(=O)(NCCN*)c1cccc2cnccc12; hLeu = CC(C)CC[C@H](N)C(=O)O; Orn = NCCC[C@H](N)C(=O)O; Dab = NCC[C@H](N)C(=O)O

Experiments:
[1] = target: protein kinase A, catalytic subunit; assay: cell-based or functional assay
[2] = target: protein kinase B (UniProt P31749); assay: cell-based or functional assay
protein kinase B, sequence (P31749 whole entry): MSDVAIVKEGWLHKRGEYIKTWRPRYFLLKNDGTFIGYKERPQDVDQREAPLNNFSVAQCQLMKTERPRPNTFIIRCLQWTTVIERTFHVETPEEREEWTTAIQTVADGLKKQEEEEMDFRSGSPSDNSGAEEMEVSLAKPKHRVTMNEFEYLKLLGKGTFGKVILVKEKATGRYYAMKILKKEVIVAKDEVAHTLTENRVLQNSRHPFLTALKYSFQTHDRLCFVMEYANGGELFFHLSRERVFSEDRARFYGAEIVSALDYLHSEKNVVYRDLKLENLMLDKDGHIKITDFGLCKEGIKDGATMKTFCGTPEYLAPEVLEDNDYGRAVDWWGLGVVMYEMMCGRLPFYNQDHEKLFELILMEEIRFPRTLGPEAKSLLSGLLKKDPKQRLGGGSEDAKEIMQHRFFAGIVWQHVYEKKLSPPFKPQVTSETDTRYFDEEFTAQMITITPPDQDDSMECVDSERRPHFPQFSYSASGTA

Row | % inhibition of kinase activity at 1 µM; PKA-kinase Assay 1 [1] [%] | % inhibition of kinase activity at 1 µM; PKA-kinase Assay 2 [1] [%] | % inhibition of kinase activity at 1 µM; PKB-kinase (spa) Assay 1 [2] [%] | % inhibition of kinase activity at 1 µM; PKB-kinase (spa) Assay 2 [2] [%] | Binder
1 | 95 | 96 | 58 | 52 | RPR[Orn]E(X1)[Orn]F (not fully specified (C-terminus)) [TY-60020-11]
2 | 96 | 97 | 71 | 57 | RPR[Orn]E(X1)[Dab]F (not fully specified (C-terminus)) [TY-60020-9]
3 | 92 | 94 | 45 | 48 | RPR[Orn]E(X1)[Dab][hLeu] (not fully specified (C-terminus)) [TY-60020-10]
